The results in this text go back to the DeepSol protein solubility set.

A short description of this data set: soluble on expression in E. coli; label from the status in PepcDB or PDB records.
Turning to “MGSDKIHHHHHHMSKLVTIYGGSGFVGRYIARRMAKEGWRVRVAVRRPNEAMHVKPYGAVGQVEPVLCNLRDDNSVAQTMRGADAVVNCVGVLNELGRNSFDAVQAEGAERIARIAAEQGVARMVHVSAIGADGDSDSAYSRSKALGEAGVLRHMPDAMILRPSVIFGTEDQFFNRFAGMTRFGPFLPVVGAETRFQPVYVDDVARAAVKGVLGQAPGGVYELGGPDVETFRALMQRMLGVIHRKRIIIALPFFAARIMAGMLDVAKFVSFQLFPNNILTRDQLKNLRRDNVVSEGAKGFADLGIAPEPMDTVLPAYLWKFRPNGQYDEIQASAKNLRA”, the “soluble on expression in E. coli” value was “not soluble”.
The value for “MAHHHHHHMSWAALVKSIKPEEATNFTAKPRVTVFAVDPSQNDAERQLQNPQHETAEVKLPSFSKGLLILDANAIIKGMDNFVSTADALVTTPQVIAEIKDRASRELMERLPHKVTVLDPTPEAVAAVVACAERTGDFGAMSRTDIRLCALALECCKVGGFLGEPIEPRPPQVNPRNDDKVQVMTEEMGEDGSNDERAKSETAHAQGASSSAMPGWGDWSDEAKETDGEGGAGAAEEDDGEGEWITPENIQDVQSGTRGAGRAFEAGMACVTSDYAMQNTLMHLGVPIVGTNGIHIRELRLWMMRCTACFTLVVDTTRQFCPECGSGDTLRRVNYVVNDQGEKKLYINFRKRISTRGTIYNLPRPRGGTHGTNRNLVLREDQLAHVIRGTTSSKVKAHQVMQNDDGALATFGEAPKLKKKNLADPRAYSSYHRYNVNEKKKVRAAHRK” was “soluble”; that for “MSLKITWLGHAAFLLEGSMKVLIDPFLTGNPNAPVKPEEVKADYILVTHGHGDHLGDAVEIAKRNNAPIICIHELSRILSRYDVETMGMNMGGTARTGSIAVTMVPAWHSADLEDEQGNIISAGLPAGFIVSMDGVRVYHTGDTDVFLDMQLIGELHRPDVMLLPIGDYYTMGIAGAVKALELVKPKVAIPMHYNTFPLVEKDPEDFRKAVKAKGLDVEVVILKPGESYEFNKEGGSHHHHHH” was “soluble”.
With “MVHYKLTYFNGRGAGECARQVFALADQKYEDVRLTQETFVPLKATFPFGQVPVLEVDGQQLAQSQAICRYLAKTFGFAGATPFESALIDSLADAYTDYRAEMKTYYYTALGFMTGDVDKPKTDVLLPARTKFLGFITKFLKKNSSGFLVGDKISWVDLLVAEHVADMTNRVPEYIEGFPEVKAHMERIQQTPRIKKWIETRPETPF” the entry was “soluble”.
With “HYNLKASNDAKIMKTLKEARQYEQSAKPTHIQQYFKHLGQMNYQIMTVDQKGHKTFYGEPFREDTLSQNAINNVLNNKDYHGIKDKPFALFVTGFFDNVTDNTVGINFKTKDGSIAVFMRPDIGETFSEFRT” the entry was “not soluble”; with “MAHHHHHHMRRIQLAFLTKLWQRRNCGSFNERALVQRTCEHIYCSSSAREQLRQLIHESSVENALRHLGEFSNDVSVLKGSAWLGQLSKAPDVVGRIAVILPQFEKWYVARKAPEKVTMHEPWDWYPKARFMRRRFVFHYGPTNSGKTHAALETLVKAKSGVYCAPLKALAAQVWKRIDASVPCDLLIGDERRFGGGAEHVSCTVEMTPIDYQIDVGVIDEVQMIADRDRGWAWTRALLGLPAREIHLCGEERAIPLIRKVLYKTHELQRLEVVPHKRLVPLEVSPSLDGDLRRIENGDTLVCFSRRAIFDMKKKLENISGMAPHCIYGSMPFSVREAQADAFNNGTRDVIEGKSGKKHVLISTDAIAYGLNMSIERIIFTSMRKFDGKQMVTLPQATILQVAGRAGRFGVLRSHKFGRCTTLDSNDFAVLCEAVNSRLPSLQKAGLLPTAEVLELYIRLREAEEGGRVTENNLASFYQRMREFSECCQASDLFFPCDLSRSLLQVAKELEAVTDLSLSDRILFCYVPLNDRGKETYDLLRAFGHDHAAGRHVVLRIDEEFERLVKQCDLVCSGDTRRAHQVLTRMEHLYRVAEMYCWLAWRFGKTFVHLETATALKERAALKMEEILQHL”, “not soluble”.
Take “MSQLRADKKGTHRVAFDRNKKKLLKAATVCGICGKPVDKSLKYPHPLSAAIDHIVPIAKGGHPSALENLQLTHWQCNRQKSDKLFANQASNEPKTIGNRNLPQSRDWSSFAFKKLEHHHHHH”: the “soluble on expression in E. coli” value is “soluble”.
Turning to “MGSDKIHHHHHHMLPSAPCSGWSHHTLKPLGAGTRGTGYIMPVTNMIHLDNRDHADRQSHGQPAHVLMLEQSPGVVPKSLLGKGLTYLREQWPKLIRYVENGSWPISNNPCENAIRLFCVGRRGWLFSDTVDGANACANLYTLVETSKTNGIDLYRYLAWLFRRLPLAKTVDDYDALLPWRMPVDIHVDPFDKERSTIDHEQENHSAGSLSA”, the “soluble on expression in E. coli” value is “not soluble”.
With “MKIRSQVGMVLNLDKCIGCHTCSVTCKNVWTGREGMEYAWFNNVETKPGIGYPKNWEDQQEWQGGWVRDVNGKIRPRLGGKMGVISKIFANPVIPQIDDYYEPFTFDYQHLHNAPESKHQPTARPRSLIDGKRMDKVIWGPNWEELLGGEFEKRARDRNFDNIQKEMYGQFENTFMMYLPRLCEHCLNPSCVATCPSGAIYKREEDGIVLIDQDKCRGWRLCISGCPYKKIYFNWKSGKSEKCIFCYPRIESGQPTVCSETCVGRIRYLGVLLYDADRIEEAASTEHETDLYERQCDVFLNPHDPAVIEEALKQGIPQNVIDAAQRSPVYKMAMDWKLALPLHPEYRTLPMVWYVPPLSPIQSYADAGGLPHNGNILPAVETLRIPVQYLANMLSAGDTGPVIRALKRMMAMRHYMRSQTVEGVTDTRAIEEVGLSIQQVEEMYRYLAIANYEDRFVIPTSHREMARDAFPERNGCGFTFGDGCHGSDTKFNLFNSSRIDAINITEVRDKAEGE” the entry was “not soluble”; with “MKNDSFLDKVIGSLLSQNFQVDSNAYTYGLVKGKNDSFSGKVIDGIDVAKSILAIAQIFGSPIDSDCADFKTIFNGEGFKKDLKALYSMTDAVLYKFILGQPLIVGVVKADSLTHNEIYDITDKFDKAILGFRKYTARMKWTKCR”, “not soluble”.
The value for “MSLSTLQDLEKTLWATADKMRANMDPAEYKHIVLGLIFLKYISDSFAGRRAELERKFSDAGDDYYLGGDDPTYLASELEERDYYKEVNVFWVPEPARWESLRAAAKQVDIGKRIDDALADIEAENPQLKNILDKRYARAQLPDGKLGELVDMISIIGFSSDANKARDLLGQVYEYFLGQFASAEGKRGGQFYTPASIVKTLVAVLNPHHGKVYDPCCGSGGMFVQSEKFIEAHGGKLGDVSIYGQESNPTTWRLAAMNLAIRGMDFNLGKEPADSFIRNQHSDLRADFVLANPPFNISDWWHGSLDGDSRWVYGTPPQGNANYAWLQHMLFHLKSSGRAGIVLANGSMSSSQNSEGDIRRAMVEADVVEVMVALPGQLFFNTQIPACLWFLAKQKNKRPGEVLFIDARKLGTNISRVQIELLDSDIESIAQTVANWRGVPLEVDGEIAEYADVAGFCRSVPLAEIAEHGHVLTPGRYVGAEAVEDDDEAFADKMQDLTALLGEQLAKGTELDQLIRHKLGGLGYEEGHHHHHH” was “soluble”; that for “MGSDKIHHHHHHMNTDSPLKAIQPPADEQAWAVRARRQFEAEQLLYAYVEYIDDDRLEELPELFTEDGSYQIISRENVERGLPAPTMGCSNRNMLIDRIVSLRHANIYSQHAYRHVLSNVRVKAMEGDEALVQSNYVVMATRGDGIARVYSTGKYVDRLVFEEDGPKFKQKRVIFDTQLIDTLLVRPL” was “not soluble”; that for “MKAHHILKVTKQYNPTEDLEFNPDLDGELVAGADNLPSVEIQVEKIADRQRQITARVQIPQPVEQVWQVLTNYEALADFIPNLAKSSLLEHPNGGIRLEQVGSQRLLNFKFCARVVLDLEEYFPKEINFQMVEGDFKGFSGNWCLQPYALGNVIGTDLCYTIQVWPKLTMPITIIERRLSQDLRSNLLAIYQRVECLANQSLLEHHHHHH” was “soluble”.
